In publication PMC6962393, “Targeting the tumor vasculature with engineered cystine-knot miniproteins” (Nature Communications, 2020):

What was measured:
Assay in all cases: ELISA
ELISA = substrate: FN-B, recombinant human fibronectin extra domain B (EDB) as a single domain; settings: chain shown with the change; pre-coated human FN-B; detection with HRP-conjugated anti-S-tag antibody; parent: est. 100; read off a plot
[1] = molecular target: FN-67B89, human fibronectin EDB flanked by its surrounding type III domains; settings: chain shown with the change, FN-67B89 coated 1 µg/well, read off a plot
Chain of FN-67B89, human fibronectin EDB flanked by its surrounding type III domains (chain, as listed by the source): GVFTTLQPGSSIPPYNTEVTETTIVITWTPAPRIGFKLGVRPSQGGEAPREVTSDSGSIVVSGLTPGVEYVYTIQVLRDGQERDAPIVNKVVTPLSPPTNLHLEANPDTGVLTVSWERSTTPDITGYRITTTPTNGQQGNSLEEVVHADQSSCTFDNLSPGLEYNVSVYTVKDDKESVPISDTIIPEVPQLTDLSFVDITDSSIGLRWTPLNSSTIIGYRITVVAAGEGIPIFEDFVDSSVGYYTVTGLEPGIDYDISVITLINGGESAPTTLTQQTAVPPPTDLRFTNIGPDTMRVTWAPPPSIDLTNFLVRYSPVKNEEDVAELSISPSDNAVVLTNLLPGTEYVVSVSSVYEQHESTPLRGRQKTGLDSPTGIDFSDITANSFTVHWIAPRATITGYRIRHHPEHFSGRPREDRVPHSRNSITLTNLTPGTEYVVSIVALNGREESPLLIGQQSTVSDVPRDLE

[2] = molecular target: FN-6789, human fibronectin type III domains 6–9 without EDB; settings: chain shown with the change, FN-6789 coated 1 µg/well, read off a plot
Chain of FN-6789, human fibronectin type III domains 6–9 without EDB (chain, as listed by the source): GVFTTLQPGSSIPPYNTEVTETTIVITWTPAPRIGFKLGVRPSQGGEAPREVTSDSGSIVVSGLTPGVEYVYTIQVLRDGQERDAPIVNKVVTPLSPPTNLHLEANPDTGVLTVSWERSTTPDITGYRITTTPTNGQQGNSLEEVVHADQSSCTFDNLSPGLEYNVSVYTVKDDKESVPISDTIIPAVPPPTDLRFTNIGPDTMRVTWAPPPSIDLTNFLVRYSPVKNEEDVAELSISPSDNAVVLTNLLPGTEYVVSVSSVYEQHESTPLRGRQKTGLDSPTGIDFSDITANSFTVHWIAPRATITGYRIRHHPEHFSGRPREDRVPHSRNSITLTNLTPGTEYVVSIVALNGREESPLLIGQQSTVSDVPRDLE

Chain of FN-B, recombinant human fibronectin extra domain B (EDB) as a single domain (chain, as listed by the source): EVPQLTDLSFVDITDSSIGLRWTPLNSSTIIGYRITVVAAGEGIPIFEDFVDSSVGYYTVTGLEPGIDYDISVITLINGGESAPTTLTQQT

percent of parent (ELISA) [%]	other results	Binder
130	–	AMCTQRKNRIRLCRRDSDCTGACICRGNGYCG [Trx-MC-FN-010, Thioredoxin-A fusion of cystine-knot miniprotein MC-FN-010 P1A]
5	–	PMCTQRKNAIRLCRRDSDCTGACICRGNGYCG [Trx-MC-FN-010, Thioredoxin-A fusion of cystine-knot miniprotein MC-FN-010 R9A]
61	–	PMCTQRKNRIRLCRADSDCTGACICRGNGYCG [Trx-MC-FN-010, Thioredoxin-A fusion of cystine-knot miniprotein MC-FN-010 R15A]
100	–	PMCAQRKNRIRLCRRDSDCTGACICRGNGYCG [Trx-MC-FN-010, Thioredoxin-A fusion of cystine-knot miniprotein MC-FN-010 T4A]
65	–	PMCTARKNRIRLCRRDSDCTGACICRGNGYCG [Trx-MC-FN-010, Thioredoxin-A fusion of cystine-knot miniprotein MC-FN-010 Q5A]
100	–	PACTQRKNRIRLCRRDSDCTGACICRGNGYCG [Trx-MC-FN-010, Thioredoxin-A fusion of cystine-knot miniprotein MC-FN-010 M2A]
83	–	PMCTQAKNRIRLCRRDSDCTGACICRGNGYCG [Trx-MC-FN-010, Thioredoxin-A fusion of cystine-knot miniprotein MC-FN-010 R6A]
320	response (Absorbance (450 nm)) ([1]; 1.56 nM Trx-miniprotein, parent: est. 0.70): 0.62; response (Absorbance (450 nm)) ([1]; 3.13 nM Trx-miniprotein, parent: est. 1.5): 1.1; response (Absorbance (450 nm)) ([1]; 6.25 nM Trx-miniprotein, parent: est. 2.2): 1.7; response (Absorbance (450 nm)) ([1]; 12.5 nM Trx-miniprotein, parent: est. 3.0): 2.4; response (Absorbance (450 nm)) ([1]; 25 nM Trx-miniprotein, parent: est. 3.4): 2.9; response (Absorbance (450 nm)) ([1]; 50 nM Trx-miniprotein, parent: est. 3.7): 3.1; response (Absorbance (450 nm)) ([2]; 25 nM Trx-miniprotein, parent: est. 0.30): 0.09; response (Absorbance (450 nm)) ([2]; 50 nM Trx-miniprotein, parent: est. 0.62): 0.13	PMCTQRANRIRLCRRDSDCTGACICRGNGYCG [Trx-MC-FN-010, Thioredoxin-A fusion of cystine-knot miniprotein MC-FN-010 K7A]
71	–	PMCTQRKNRIRLCARDSDCTGACICRGNGYCG [Trx-MC-FN-010, Thioredoxin-A fusion of cystine-knot miniprotein MC-FN-010 R14A]
88	–	PMCTQRKARIRLCRRDSDCTGACICRGNGYCG [Trx-MC-FN-010, Thioredoxin-A fusion of cystine-knot miniprotein MC-FN-010 N8A]
